Laboratory results published in US20170115293A1.

Molecular target: FAS (CD95, APO-1) death receptor (human) (UniProt P25445)
Experiment: cell-based or functional assay

UniProt P25445, sequence (P25445 26-335): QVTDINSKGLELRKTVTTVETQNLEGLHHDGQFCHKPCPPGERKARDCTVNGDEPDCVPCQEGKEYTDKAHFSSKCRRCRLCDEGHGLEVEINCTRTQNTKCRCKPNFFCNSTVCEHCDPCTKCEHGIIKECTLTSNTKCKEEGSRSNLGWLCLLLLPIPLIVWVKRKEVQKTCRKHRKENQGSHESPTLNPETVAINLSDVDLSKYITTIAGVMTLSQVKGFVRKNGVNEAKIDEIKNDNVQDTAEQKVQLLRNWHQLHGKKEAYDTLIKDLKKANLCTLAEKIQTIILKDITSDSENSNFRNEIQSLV

CH11, a FAS agonistic (stimulating) antibody (monoclonal mouse antibody, cat. no. 05-201; EMD Millipore)
clonogenic cell survival of SUM159: radiation dose to achieve a surviving fraction of 0.1: 3.25 Gy
clonogenic cell survival of SUM159 after irradiation: dose-modifying factor: 2.5
